# Results as given in publication PMC4027180.
# Test system: Stf76 (Sulfolobus islandicus plasmid-virus pSSVx)
# Experiment: ITC
# Details: EMSA: 20 mM Tris-acetate pH 8.0, 50 mM K acetate, 10 mM Mg acetate, 1 mM DTT, 5% glycerol, 1 ug salmon sperm DNA, 50 C protein pre-incubation, binding 37 C …
sequence,measurement,value
GGAAACAGTATTAATAAAGTGTTAATCCTATTACCC (double strand) [probe A' (35 bp-site A)],Kd,40 nM
